Data as given in US7855167.

What was measured:
[1] = target: WinZip-B1-DHFR[2:I114A] (murine) (UniProt P00375); experiment: cell-based or functional assay
[2] = target: WinZip-B2-DHFR[2:I114A] (murine) (UniProt P00375); experiment: cell-based or functional assay

Substance: WinZip-A1-DHFR[1] (from UniProt P00375 1-107) (designed binder)
- Frequency of dominant Pair at P12 [1]: 82%
- Selection factor (competition selection) [1]: 3.2e+06
- frequency of the pair among sequenced colonies at P10 [1]: 33%
- Frequency of dominant Pair at P12 [2]: 67%
- Selection factor (competition selection) [2]: 87000
- frequency of the pair among sequenced colonies at P10 (fraction (3/5)) [2]: 0.6
